Results reported in US20080286311A1.

How the values were obtained:
[1] = target: basophils from house dust mite allergic patients
[2] = target: serum IgE of profilin-sensitised (Phl p 12-allergic) patients; test: fluid phase inhibition: sera of six patients preincubated with 10 µg MP12, then ELISA on plate-bound Phl p 12
[3] = target: basophils (granulocytes) from Phl p 12-allergic patients
[4] = target: serum IgE of profilin-sensitised (Phl p 12-allergic) patients; test: fluid phase inhibition: sera of six patients preincubated with 10 µg Phl p 12, then ELISA on plate-bound Phl p 12

**Q.** How did the CD 203c expression on basophils [1] turn out when “rDer p 2 hybrid (aa 54-129+1-53) (from UniProt P49278)” was run?
**A.** Its CD 203c expression on basophils is 10 fold reduced.

B1: MP12 (reshuffled Phl p 12 derivative) (protein)
chain: MEPGAVIRGKKGAGGITIKKTGQALVGIYDEPMTPGQCNMVVERLGDYLVEQGMMSWQTYVDEHLMCEIEGHHLASAAILGHDGTVWAQSADFPQFKPEEITGIMKDFDEPGHLAPTGMFVAGAKYMVIQGHHHHHH
**Q.** What does the source list for B1?
**A.** mean % inhibition of IgE binding to Phl p 12 [2]: 31.2%; histamine release (fold reduction) [3]: 1000

B2: Phl p 12 wild-type (timothy grass pollen profilin) (protein)
chain: MSWQTYVDEHLMCEIEGHHLASAAILGHDGTVWAQSADFPQFKPEEITGIMKDFDEPGHLAPTGMFVAGAKYMVIQGEPGAVIRGKKGAGGITIKKTGQALVVGIYDEPMTPGQCNMVVERLGDYLVEQGM
**Q.** Which mean % inhibition of IgE binding to Phl p 12 [4] does the source give for B2 here?
**A.** The mean % inhibition of IgE binding to Phl p 12 was 86%.
